In PMC2883070 (Molecular Microbiology, 2010):

Biological target: T1, His-FliM (E. coli W3110, UniProt P06974 1-334)
T1 sequence (looked up): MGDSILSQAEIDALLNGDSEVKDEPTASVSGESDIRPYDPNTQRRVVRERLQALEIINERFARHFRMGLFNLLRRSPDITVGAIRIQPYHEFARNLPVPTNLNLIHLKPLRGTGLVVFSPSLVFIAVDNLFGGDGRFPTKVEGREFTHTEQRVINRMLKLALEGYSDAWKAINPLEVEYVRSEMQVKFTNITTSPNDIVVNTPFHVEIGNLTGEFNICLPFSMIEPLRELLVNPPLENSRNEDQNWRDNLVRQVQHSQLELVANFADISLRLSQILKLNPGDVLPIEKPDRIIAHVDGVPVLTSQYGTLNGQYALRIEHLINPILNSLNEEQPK
Experiment: SPR

B1: CheY-His (natural protein, E. coli W3110)
chain: ADKELKFLVVDDFSTMRRIVRNLLKELGFNNVEEAEDGVDALNKLQAGGYGFVISDWNMPNMDGLELLKTIRADGAMSALPVLMVTAEAKKENIIAAAQAGASGYVVKPFTAATLEEKLNKIFEKLGM
  Kd: 1.63 µM

B2: AcCheY-His (natural protein, E. coli W3110)
chain: B1 chain
modifications: acetyl-lysine at 91 and 109 (found by LC-MS/MS)
  Kd: 9.4 µM
